US20100204100A1, “BIOLOGICAL AGENTS ACTIVE IN CENTRAL NERVOUS SYSTEM” (THE JOHNS HOPKINS UNIVERISTY, priority 2007, published 2010)
Residue numbers refer to the chain shown, from its start. Names may count otherwise. “Also recorded” adds a separate entry of the source.

B1: Tat-PSD-95 PDZ2: His-tagged fusion peptide: HIV Tat minimal transduction domain (residues 47-57) fused to the second PDZ domain of PSD-95 (protein)
chain: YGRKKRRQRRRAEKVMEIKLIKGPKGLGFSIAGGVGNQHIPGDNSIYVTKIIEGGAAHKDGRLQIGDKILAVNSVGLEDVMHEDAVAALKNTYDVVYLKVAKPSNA
B2: mutated Tat-PSD-95 PDZ2: Control fusion peptide: Tat-PSD-95 PDZ2 with three sites critical for NMDAR/PSD-95 interaction mutated (K165T, L170R and H182L) (protein)
chain: B1 chain with K22T, L27R, H39L
B3: PSD-95 PDZ2: Control peptide containing the same sequences as Tat-PSD-95 PDZ2 but without Tat PTD (protein)
chain: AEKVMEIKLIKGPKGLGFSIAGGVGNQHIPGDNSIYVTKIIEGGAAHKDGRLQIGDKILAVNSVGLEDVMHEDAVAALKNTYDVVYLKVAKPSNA

Key:
[1] = system: threshold for halothane anesthesia; assay: Measurement of halothane MAC (tail clamp); assay type: in vivo, mouse; conditions: mice; for halothane MAC: mean±S.E.M., vehicle 1.12±0.05; for effect on halothane MAC: intraperitoneal injection, dose series
Protocol: The purified fusion peptides at the indicated amounts were injected intraperitoneally into mice in 300 μl of phosphate-buffered saline and 10% glycerol. The mice were given Tat-PSD-95 PDZ2 or control peptide (mutated Tat-PSD-95 PDZ2 or PSD-95 PDZ2 without Tat) 4 h before MAC measurement and righting reflex testing. All the animals were assigned randomly to experimental groups consisting of 6-8 animals each. Western blot analysis was then used to verify the CNS delivery of these fusion peptides after intraperitoneal injection. Measurement of halothane MAC value was carried out as previously described with minor modification^20-22. Mice were placed in individual Plexiglas chambers 3 h after the injection of the fusion peptides. Each chamber was fitted with a rubber stopper at one end through which the mouse's tail and a rectal temperature probe protruded. Groups of four mice were given halothane in oxygen (4 l/min total gas flow). A gas sample was continuously drawn, and the anesthetic concentration was measured with an agent analyzer (Ohmeda 5250 RGM, Louisville, Colo.). A rectal temperature probe was inserted under light general anesthesia, and temperature was kept at 36˜38° C. with heat lamps throughout the experiment. Mice initially breathed approximately 1.5% halothane for 60 min. […] In each case, the tail was stimulated proximal to the previous test site. Only the middle third of the tail was used for tail-clamping. […] The anesthetic concentration was increased (or decreased) in steps of 0.1% until the positive response disappeared (or vice versa), with 10 min for equilibration allowed after each change of anesthetic concentration. MAC is defined as the concentration midway between the highest concentration that permitted movement in response to the stimulus and the lowest concentration that prevented movement.

[2] = In vivo CNS / spinal cord distribution of Tat fusion peptides after intraperitoneal injection (Western blot, immunohistochemistry); design: species or system mouse; conditions: mice; for delivery into lumbar spinal cord, Western blot: 4 h after intraperitoneal injection; for delivery into cerebral cortex, hippocampus and lumbar spinal cord, Western blotting: 4 h after intraperitoneal injection (data not shown); for distribution in the spinal cord, immunohistochemical staining: after intraperitoneal injection; for dose dependence of delivery into the spinal cord, Western blot: intraperitoneal 2, 4, 8 mg/kg
Protocol: In Vivo Systemic Administration and Spinal Cord Distribution of Tat Fusion Peptides. Western blot analysis and immunohistochemistry were used to detect the spinal cord distribution of Tat fusion peptides after systemic administration. The purified fusion peptides at the indicated amounts were injected into mice intraperitoneally in 300 μl of PBS and 10% glycerol, as previously described (Cao, et al., 2002). The mice, assigned randomly to the experimental groups of 6-8, were given Tat-PSD-95 PDZ2 or control peptide (mutated Tat-PSD-95 PDZ2 or PSD-95 PDZ2 without Tat PTD) 4 h before sample collection. For Western blotting, lumbar spinal cord tissues were harvested, homogenized according to standard procedures, and centrifuged at 700×g for 15 min at 4° C. The extracted proteins were resolved by SDS-PAGE, electro-transferred to nitrocellulose membranes, and then immunoblotted with above-mentioned monoclonal anti-His antibody. For immunohistochemistry, sections from the spinal lumbar enlargement segments were fixed in 4% paraformaldehyde (in 0.1 M phosphate buffer, pH 7.4) for 10 min, and then incubated with the monoclonal anti-His antibody. Thereafter, the sections were rinsed with 0.01 M PBS, incubated with fluorescein isothiocyanate-conjugated anti-mouse IgG (1:80; Jackson ImmunoResearch Laboratories) for 1 h at 37° C., and rinsed again with PBS. The sections were imaged with confocal laser scanning microscopy at an excitation wavelength of 488 nm for fluorescein isothiocyanate.
The purified fusion peptides at the indicated amounts were injected intraperitoneally into mice in 300 μl of phosphate-buffered saline and 10% glycerol. The mice were given Tat-PSD-95 PDZ2 or control peptide (mutated Tat-PSD-95 PDZ2 or PSD-95 PDZ2 without Tat) 4 h before MAC measurement and righting reflex testing. All the animals were assigned randomly to experimental groups consisting of 6-8 animals each. Western blot analysis was then used to verify the CNS delivery of these fusion peptides after intraperitoneal injection.
Cerebral cortex, hippocampus, and lumbar spinal cord were harvested 4 h after intraperitoneal injection of the fusion peptides. Total proteins from these tissues were extracted. In brief, the tissues were removed and homogenized in homogenization buffer^18 (10 mM Tris-HCl, 5 mM MgCl2, 2 mM EGTA, 1 mM phenylmethylsulfonyl fluoride, […] leupeptin, 2 μM pepstatin A, and 320 mM sucrose, pH 7.4). The crude homogenates were centrifuged at 700×g for […] at 4° C. The pellets were rehomogenized and spun again at 700×g, and the supernatants were combined and diluted in resuspension buffer^18 (10 mM Tris-HCl, 5 mM MgCl2, 2 mM EGTA, 1 mM phenylmethylsulfonyl fluoride, 1 μM leupeptin, 2 μM pepstatin A, and 250 mM sucrose, pH 7.4). Next, the protein extracts were resolved by sodium dodecyl sulfate-polyacrylamide gel electrophoresis, electrotransferred to nitrocellulose membranes, and then immunoblotted with monoclonal anti-His antibody (Sigma, St. Louis, Mo.) diluted (1:1,000) in blocking solution containing 3% nonfat dry milk and 0.1% Tween-20 in Tris-HCl-buffered saline for 1 h at room temperature. After extensive washing, the membranes were incubated with horseradish peroxidase-conjugated anti-mouse immunoglobulin (Bio-Rad Laboratories, Hercules, Calif.) at a dilution of 1:3,000 for another 1 h. Specific proteins were detected by enhanced chemiluminescence (Amersham, Piscataway, N.J.). Tubulin served as a loading control and cerebral cortex was used for its detection.

| Molecule | halothane MAC ([1]; 2 mg/kg intraperitoneal) | halothane MAC ([1]; 4 mg/kg intraperitoneal) | effect on halothane MAC compared to the vehicle-treated group ([1]; 8 mg/kg intraperitoneal) | halothane MAC ([1]; 8 mg/kg intraperitoneal) | effect on halothane MAC [1] | delivery into lumbar spinal cord, Western blot [2] | delivery into cerebral cortex, hippocampus and lumbar spinal cord, Western blotting [2] | distribution in the spinal cord, immunohistochemical staining [2] | dose dependence of delivery into the spinal cord, Western blot [2] | dose dependence of delivery into the spinal cord, Western blot ([2]; listed as Tat-P SD-95 PDZ2) | difference in PTD-mediated spinal delivery versus Tat-PSD-95 PDZ2 ([2]; intraperitoneal injection, Western blot) | delivery into lumbar spinal cord, Western blot ([2]; listed as PSD-95 PDZ2 without Tat) |
| --- | --- | --- | --- | --- | --- | --- | --- | --- | --- | --- | --- | --- |
| B1 | 1.11±0.05 | 0.99±0.05 | significantly reduced | 0.77±0.05 | dose-dependently reduced | delivered into lumbar spinal cord | delivered into cerebral cortex, hippocampus and lumbar spinal cord | distributed in the spinal cord | dose-dependently delivered; also recorded: dose-dependent | dose-dependent |  |  |
| B2 |  |  | no effect |  | no effect | delivered into lumbar spinal cord | delivered into cerebral cortex, hippocampus and lumbar spinal cord |  |  |  | No significant difference |  |
| B3 |  |  | no effect |  | no effect |  |  | not detected |  |  |  | not detected |
